According to patent US20200017592A1 (Regeneron, published 2020):

Assays:
[1] = target: T1, human IL-36R extracellular domain expressed with a C-terminal myc-myc-hexahistidine tag (hIL-36R-MMH) (human, UniProt Q9HB29 20-337); assay: SPR Biacore T200, mAb captured on anti-hFc, 37C, PBS-T pH 6.0 running buffer
T1 construct: also called Human IL-36R-MMH; REGN2105
Method in brief: (§1)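 Antibodies captured on an anti-human Fc surface; hIL-36R-MMH injected at 100-11.11 nM (3-fold) in PBS-T pH 7.4 for 4 min at 50 μL/min. Dissociation followed 10 min in PBS-T pH 7.4 or pH 6.0 at 25 °C or 37 °C; kd from 1:1 fit, t1/2 derived from kd.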

[2] = target: T2, human IL-36R extracellular domain expressed with a C-terminal mouse IgG2a Fc tag (hIL-36R-mFc) (human; mouse, UniProt Q9HB29 20-337); assay: SPR Biacore 4000, mAb captured on anti-hFc, 25C
T2 construct: not shown: mouse IgG2a Fc, E98-K330
T2 sequence (looked up): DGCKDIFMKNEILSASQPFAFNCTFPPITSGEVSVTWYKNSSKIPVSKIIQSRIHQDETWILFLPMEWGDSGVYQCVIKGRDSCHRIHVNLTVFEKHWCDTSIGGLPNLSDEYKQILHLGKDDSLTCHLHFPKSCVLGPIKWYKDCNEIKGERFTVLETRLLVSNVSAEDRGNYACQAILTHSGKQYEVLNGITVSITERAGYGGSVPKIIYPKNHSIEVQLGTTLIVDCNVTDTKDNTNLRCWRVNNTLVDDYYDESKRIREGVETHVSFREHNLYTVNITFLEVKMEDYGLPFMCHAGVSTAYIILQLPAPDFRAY
Method in brief: (§2)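 Anti-IL-36R mAbs were captured on an amine-coupled mouse anti-human Fc surface, and IL-36R reagents (100 nM to 3.7 nM, 3-fold dilutions) were injected for 4 minutes, then dissociation was followed for 10 minutes in HBS-ET (0.01 M Hepes pH 7.4, 0.15 M NaCl, 3 mM EDTA, 0.05% Tween-20). KD came from 1:1 kinetic fits.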

[3] = target: T3, in-line fusion protein of human IL-36R extracellular domain and IL1RAcP extracellular domain expressed with … (human; mouse, UniProt Q9HB29 20-337; Q9NPH3 21-359, limits assumed); assay: SPR Biacore 4000, mAb captured on anti-hFc, 25C
T3 construct: not shown: mouse IgG2a Fc
T3 sequence (looked up): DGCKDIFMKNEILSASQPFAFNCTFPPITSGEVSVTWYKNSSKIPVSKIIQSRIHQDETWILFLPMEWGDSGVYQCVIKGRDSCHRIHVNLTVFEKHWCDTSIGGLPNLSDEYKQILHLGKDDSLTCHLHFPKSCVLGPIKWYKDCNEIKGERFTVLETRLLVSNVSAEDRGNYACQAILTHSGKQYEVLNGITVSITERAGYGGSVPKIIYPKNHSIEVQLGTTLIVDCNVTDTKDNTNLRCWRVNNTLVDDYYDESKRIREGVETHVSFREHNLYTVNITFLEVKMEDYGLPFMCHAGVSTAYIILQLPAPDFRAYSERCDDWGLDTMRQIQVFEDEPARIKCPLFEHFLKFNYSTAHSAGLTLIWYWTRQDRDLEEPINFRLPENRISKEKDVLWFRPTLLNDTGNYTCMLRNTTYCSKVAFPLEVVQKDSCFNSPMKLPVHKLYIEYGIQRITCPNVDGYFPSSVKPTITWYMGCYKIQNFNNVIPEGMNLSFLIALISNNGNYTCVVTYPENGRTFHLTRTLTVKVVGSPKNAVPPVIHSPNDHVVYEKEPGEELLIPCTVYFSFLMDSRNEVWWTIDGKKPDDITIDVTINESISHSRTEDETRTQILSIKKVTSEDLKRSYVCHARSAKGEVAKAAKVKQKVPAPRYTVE
Method in brief: as §2

[4] = target: T1, human IL-36R extracellular domain …; assay: SPR Biacore T200, mAb captured on anti-hFc, 25C, PBS-T pH 6.0 running buffer
Method in brief: as §1

[5] = target: T1, human IL-36R extracellular domain …; assay: SPR Biacore T200, mAb captured on anti-hFc, 37C, PBS-T pH 7.4 running buffer
Method in brief: as §1

[6] = target: T2, human IL-36R extracellular domain …; assay: SPR Biacore 4000, mAb captured on anti-hFc, 37C
Method in brief: as §2

[7] = target: T3, in-line fusion protein of human IL-36R …; assay: SPR Biacore 4000, mAb captured on anti-hFc, 37C
Method in brief: as §2

[8] = target: T1, human IL-36R extracellular domain …; assay: SPR Biacore T200, mAb captured on anti-hFc, 25C, PBS-T pH 7.4 running buffer
Method in brief: as §1

Binder | 100 nM hIL-36R-MMH Bound (RU) [1] [RU] | koff [1] [s⁻¹] | t1/2 [1] [min] | 100 nM hIL-36R-mFc Bound (RU) [2] [RU] | Kd [2] [nM] | koff [2] [s⁻¹] | kon [2] [M⁻¹ s⁻¹] | t1/2 [2] [min] | 100 nM hIL-36R-Trap-mFc Bound (RU) [3] [RU] | Kd [3] [nM] | koff [3] [s⁻¹] | kon [3] [M⁻¹ s⁻¹] | t1/2 [3] [min] | 100 nM Human IL-36R-MMH Bound (RU) [4] [RU] | koff [4] [s⁻¹] | t1/2 [4] [min] | 100 nM hIL-36R-MMH Bound (RU) [5] [RU] | koff [5] [s⁻¹] | t1/2 [5] [min] | 100 nM hIL-36R-mFc Bound (RU) [6] [RU] | also measured
H4H14732P2 (antibody, human IgG4 S228P, kappa, V domains shown, Fully human anti-IL-36R antibody) VH: EVQLVESGGGLVQPGRSLRLSCAASGFTFDDYAMHWVRQAPGKGLEWVSGINWAGYNIDYADSVKGRFTISRDNAKNSLYLQMNSLRAEDTALYYCAKDMRGFSYGFPFDYWGQGTLVTVSS VL: not shown | 36 | 0.00123 | 9 | 145 | 1.4 | 0.000797 | 570000 | 14 | 161 | 2.95 | 0.00136 | 462000 | 8 | 28 | 0.000918 | 13 | 40 | 0.0011 | 10 | 195 | Kd [6]: 2 nM; koff [6]: 0.00127 s⁻¹; kon [6]: 635000 M⁻¹ s⁻¹; t1/2 [6]: 9 min; 100 nM hIL-36R-Trap-mFc Bound (RU) [7]: 212 RU; Kd [7]: 3.63 nM; koff [7]: 0.00182 s⁻¹; kon [7]: 501000 M⁻¹ s⁻¹; t1/2 [7]: 6 min; 100 nM Human IL-36R-MMH Bound (RU) [8]: 32 RU; koff [8]: 0.000865 s⁻¹; t1/2 [8]: 13 min
H4H14734P2 (antibody, human IgG4 S228P, kappa, V domains shown, Fully human anti-IL-36R antibody; also called H14H14734P2) VH: EVQLVESGGGLVKPGGSLRLSCAASGFIFSNAWMNWVRQAPGKGLAWVGRIKTETDGGTTDYAAPVKGRFTISRDDSKNTLYLQMNSVKTEDTAVYYCTGGYSYGDDSSSWNEGYYYYGMDVWGQGTTVTVSS VL: not shown | 17 | 0.00169 | 7 | 77 | 1.63 | 0.000101 | 62200 | 114 | 85 | 2.24 | 0.00011 | 48900 | 105 | 18 | 0.000787 | 15 | 20 | 0.00121 | 10 | 96 | Kd [6]: 2.31 nM; koff [6]: 0.000122 s⁻¹; kon [6]: 52700 M⁻¹ s⁻¹; t1/2 [6]: 95 min; 100 nM hIL-36R-Trap-mFc Bound (RU) [7]: 99 RU; Kd [7]: 2.96 nM; koff [7]: 0.000143 s⁻¹; kon [7]: 48400 M⁻¹ s⁻¹; t1/2 [7]: 81 min; 100 nM Human IL-36R-MMH Bound (RU) [8]: 20 RU; koff [8]: 0.000738 s⁻¹; t1/2 [8]: 16 min
H4H14757P (antibody, human IgG4 S228P, kappa, V domains shown, Fully human anti-IL-36R antibody) VH: EVQLVESGGGLVQPGRSLRLSCTASGFTFDDYAMHWVRQAPGKGLEWVSGIRWNGGSIGYVDSVKGRFTISRDNAKKSLHLQMNSLKTEDTALYYCAKDIGDILTGFYGEYGMDVWGQGTTVTVSS VL: DIQMTQSPSSLSASEGDRVTITCRASQSISSYLNWYQQKAGKAPNLLIYAASSLQSGVPSRFSGSGSGTEYTLTISSLQPEDFATYYCQQSYIIPYTFGQGTKLEIKR | 109 | 0.0026 | 4 | 167 | 0.173 | 9.97e-05 | 575000 | 116 | 202 | 0.212 | 0.000103 | 485000 | 113 | 98 | 0.000887 | 13 | 113 | 0.00129 | 9 | 235 | Kd [6]: 0.243 nM; koff [6]: 0.00015 s⁻¹; kon [6]: 616000 M⁻¹ s⁻¹; t1/2 [6]: 77 min; 100 nM hIL-36R-Trap-mFc Bound (RU) [7]: 281 RU; Kd [7]: 0.374 nM; koff [7]: 0.000196 s⁻¹; kon [7]: 523000 M⁻¹ s⁻¹; t1/2 [7]: 59 min; 100 nM Human IL-36R-MMH Bound (RU) [8]: 105 RU; koff [8]: 0.000597 s⁻¹; t1/2 [8]: 19 min
